Laboratory results taken from article PMC8041205.

Key:
BSA = test: SPR; conditions: natural protein
[1] = molecular target: commercially available recombinant MyD88 (UniProt Q99836); test: ITC; 1 uM rTcpC in PBS in the titration pool, 0.1 uM UBE2D1 or rMyD88 in PBS in the sample pool; VP-ITC microcalorimeter
Chain of commercially available recombinant MyD88 (Q99836 whole entry): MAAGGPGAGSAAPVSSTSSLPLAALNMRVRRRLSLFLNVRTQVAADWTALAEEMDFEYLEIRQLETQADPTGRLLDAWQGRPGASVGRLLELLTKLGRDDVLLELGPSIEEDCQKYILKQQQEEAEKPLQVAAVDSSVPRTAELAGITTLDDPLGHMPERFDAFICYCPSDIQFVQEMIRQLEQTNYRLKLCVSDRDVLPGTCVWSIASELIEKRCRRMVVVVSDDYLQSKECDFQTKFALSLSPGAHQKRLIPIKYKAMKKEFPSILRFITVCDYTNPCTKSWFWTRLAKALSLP

Chain of recombinant TcpC (Toll/interleukin-1 receptor domain-containing protein encoded by E. coli) (from UniProt A0A0H2V8B5 1-307) (A0A0H2V8B5 whole entry, the tested form may be a part): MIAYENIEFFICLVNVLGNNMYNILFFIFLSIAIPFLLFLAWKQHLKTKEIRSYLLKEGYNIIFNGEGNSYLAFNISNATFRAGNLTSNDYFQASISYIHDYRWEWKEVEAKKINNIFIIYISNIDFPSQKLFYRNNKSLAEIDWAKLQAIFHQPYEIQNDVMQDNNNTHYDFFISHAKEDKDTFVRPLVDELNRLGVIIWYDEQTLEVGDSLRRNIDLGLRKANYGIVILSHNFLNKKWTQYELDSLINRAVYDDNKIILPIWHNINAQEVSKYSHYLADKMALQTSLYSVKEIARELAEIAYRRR
Chain of recombinant TcpC (Toll/interleukin-1 receptor domain-containing protein encoded by E. coli) (from UniProt A0A0H2V8B5 1-307) (natural protein; other documents disagree on this pair) (A0A0H2V8B5 whole entry, the tested form may be a part): as above

Substance “recombinant TcpC (Toll/interleukin-1 receptor domain-containing protein encoded by E. coli) (from UniProt A0A0H2V8B5 1-307)” has a Kd (BSA) greater than 10000 µM.

Work on “recombinant TcpC (Toll/interleukin-1 receptor domain-containing protein encoded by E. coli) (from UniProt A0A0H2V8B5 1-307) (natural protein; other documents disagree on this pair)” yielded a Kd [1] of 0.539 µM.
